{"source": "paper PMC10086132", "about": "“Riboflavin kinase and pyridoxine 5′-phosphate oxidase complex formation envisages transient interactions for FMN cofactor delivery” (Frontiers in Molecular Biosciences, 2023)", "key": {"[1]": {"target": "T1, RFK (riboflavin kinase; hRFK when loaded with FMN:ADP:Mg2+) (Homo sapiens, UniProt Q969G6)", "T1 construct": "recombinant, purified in apo-form by a previously described procedure", "T1 sequence (Q969G6 1-155)": "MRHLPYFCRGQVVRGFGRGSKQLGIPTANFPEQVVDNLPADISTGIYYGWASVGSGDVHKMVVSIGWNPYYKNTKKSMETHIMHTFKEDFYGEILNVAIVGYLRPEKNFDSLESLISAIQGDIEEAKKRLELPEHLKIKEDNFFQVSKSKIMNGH", "assay": "thermal unfolding followed by Trp and FMN fluorescence", "assay_type": "binding", "details": "FMN bound together with ADP:Mg2+ (hRFK) versus ligand-free RFK; 20 mM PIPES pH 7.0"}, "[2]": {"target": "T2, PNPOx (pyridoxine-5′-phosphate oxidase; aPNPOx for the apo-form) (Homo sapiens, UniProt Q9NVS9)", "T2 construct": "gene PNPO; pET28a(+) in Escherichia coli, HisTrap-purified, tag removal not mentioned; homodimer; FMN removed for the apo-form", "T2 sequence (Q9NVS9 1-261)": "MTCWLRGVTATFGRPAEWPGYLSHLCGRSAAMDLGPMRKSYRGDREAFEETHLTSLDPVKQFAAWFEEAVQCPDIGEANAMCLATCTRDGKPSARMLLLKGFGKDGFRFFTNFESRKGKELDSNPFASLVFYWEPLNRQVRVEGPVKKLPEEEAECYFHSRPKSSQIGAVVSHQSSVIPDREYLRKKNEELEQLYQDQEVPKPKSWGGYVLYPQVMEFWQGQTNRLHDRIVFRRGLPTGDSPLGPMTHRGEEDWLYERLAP", "assay": "thermal unfolding followed by Trp and FMN fluorescence", "assay_type": "binding", "details": "holo-form versus apo-form; 20 mM PIPES pH 7.0"}, "[3]": {"target": "T2, PNPOx (pyridoxine-5′-phosphate oxidase; aPNPOx for the apo-form)", "assay": "stopped-flow flavin fluorescence quenching", "assay_type": "binding", "details": "faster of two association processes, 20 mM PIPES pH 7.0, 0.3 mM MgCl2, 25 °C"}, "RFK [4]": {"target": "T3, RFK (Homo sapiens, UniProt Q969G6)", "T3 chain": "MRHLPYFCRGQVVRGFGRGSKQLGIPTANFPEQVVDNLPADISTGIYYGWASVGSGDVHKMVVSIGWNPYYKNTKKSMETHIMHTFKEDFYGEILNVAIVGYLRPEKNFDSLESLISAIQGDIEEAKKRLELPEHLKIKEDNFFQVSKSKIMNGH", "assay": "ITC"}, "RFK [5]": {"target": "T3, RFK", "assay": "stopped-flow fluorescence"}, "purified protein": {"substrate": "Cc1cc2nc3c(=O)[nH]c(=O)nc-3n(C[C@H](O)[C@H](O)[C@H](O)CO)c2cc1C", "assay": "purified protein", "details": "no aPNPOx, 400 µM ATP, 0.3 mM MgCl2, 20 mM PIPES pH 7.0, 25 °C"}}, "data": [{"molecule": "Cc1cc2nc3c(=O)[nH]c(=O)nc-3n(C[C@H](O)[C@H](O)[C@H](O)COP(=O)(O)O)c2cc1C", "note": "[FMN]", "values": [{"measurement": "increase of Tm", "setting": "[1]", "result": "~ 32 °C"}, {"measurement": "increase of Tm", "setting": "[2]", "result": "Both proteins were considerably less stable in apo-forms regarding their respective holo-forms"}, {"measurement": "k on1 ^FMN", "setting": "[3]", "result": "340000 ± 20000", "unit": "M⁻¹ s⁻¹"}]}, {"molecule": "PNPOx (protein, apo-PNPOx homodimer; ligand-free RFK) MTCWLRGVTATFGRPAEWPGYLSHLCGRSAAMDLGPMRKSYRGDREAFEETHLTSLDPVKQFAAWFEEAVQCPDIGEANAMCLATCTRDGKPSARMLLLKGFGKDGFRFFTNFESRKGKELDSNPFASLVFYWEPLNRQVRVEGPVKKLPEEEAECYFHSRPKSSQIGAVVSHQSSVIPDREYLRKKNEELEQLYQDQEVPKPKSWGGYVLYPQVMEFWQGQTNRLHDRIVFRRGLPTGDSPLGPMTHRGEEDWLYERLAP", "values": [{"measurement": "Kd", "setting": "RFK [4]", "result": 14000, "unit": "nM"}]}, {"molecule": "PNPOx (protein, holo-PNPOx homodimer with FMN; RFK loaded with FMN and ADP:Mg2+; first binding site) MTCWLRGVTATFGRPAEWPGYLSHLCGRSAAMDLGPMRKSYRGDREAFEETHLTSLDPVKQFAAWFEEAVQCPDIGEANAMCLATCTRDGKPSARMLLLKGFGKDGFRFFTNFESRKGKELDSNPFASLVFYWEPLNRQVRVEGPVKKLPEEEAECYFHSRPKSSQIGAVVSHQSSVIPDREYLRKKNEELEQLYQDQEVPKPKSWGGYVLYPQVMEFWQGQTNRLHDRIVFRRGLPTGDSPLGPMTHRGEEDWLYERLAP", "values": [{"measurement": "Kd", "setting": "RFK [4]", "result": 130, "unit": "nM"}]}, {"molecule": "PNPOx (protein, apo-PNPOx homodimer; RFK loaded with FMN and ADP:Mg2+) MTCWLRGVTATFGRPAEWPGYLSHLCGRSAAMDLGPMRKSYRGDREAFEETHLTSLDPVKQFAAWFEEAVQCPDIGEANAMCLATCTRDGKPSARMLLLKGFGKDGFRFFTNFESRKGKELDSNPFASLVFYWEPLNRQVRVEGPVKKLPEEEAECYFHSRPKSSQIGAVVSHQSSVIPDREYLRKKNEELEQLYQDQEVPKPKSWGGYVLYPQVMEFWQGQTNRLHDRIVFRRGLPTGDSPLGPMTHRGEEDWLYERLAP", "values": [{"measurement": "Kd", "setting": "RFK [4]", "result": 900, "unit": "nM"}, {"measurement": "Kd", "setting": "RFK [5]", "result": "~1000", "unit": "nM"}]}, {"molecule": "RFK (riboflavin kinase; hRFK when loaded with FMN:ADP:Mg2+) (Homo sapiens) (protein) MRHLPYFCRGQVVRGFGRGSKQLGIPTANFPEQVVDNLPADISTGIYYGWASVGSGDVHKMVVSIGWNPYYKNTKKSMETHIMHTFKEDFYGEILNVAIVGYLRPEKNFDSLESLISAIQGDIEEAKKRLELPEHLKIKEDNFFQVSKSKIMNGH", "values": [{"measurement": "Km", "setting": "purified protein", "result": "2.2 ± 0.3", "unit": "µM"}, {"measurement": "kcat", "setting": "purified protein", "result": 1, "unit": "s⁻¹"}, {"measurement": "kcat/Km", "setting": "purified protein", "result": 450000, "unit": "M⁻¹ s⁻¹"}]}]}
